Molecular target: Cdh1 (UniProt Q9R1K5)
Test: Flag IP of Cdh1, HA-FMRP blot
Conditions: reference: wild type FMRP; sites S499

binding against the reference: stronger
Substance: FMRP (from UniProt P35922) S499A

Source: publication PMC4492466
